Experimental data as given in IntAct's records for PubMed 24792722.

B1: Rho guanine nucleotide exchange factor 7 (Homo sapiens), Q14155 (parent)
chain: MNSAEQTVTWLITLGVLESPKKTISDPEGFLQASLKDGVVLCRLLERLLPGTIEKVYPEPRSESECLSNIREFLRGCGASLRLELLFPPSQPPQHLVTTILLSASTFDANDLYQGQNFNKVLSSLVTLNKVTADIGLGSDSVCARPSSHRIKSFDSLGSQSLHTRTSKLFQGQYRSLDMTDNSNNQLVVRAKFNFQQTNEDELSFSKGDVIHVTRVEEGGWWEGTLNGRTGWFPSNYVREVKASEKPVSPKSGTLKSPPKGFDTTAINKSYYNVVLQNILETENEYSKELQTVLSTYLRPLQTSEKLSSANISYLMGNLEEICSFQQMLVQSLEECTKLPEAQQRVGGCFLNLMPQMKTLYLTYCANHPSAVNVLTEHSEELGEFMETKGASSPGILVLTTGLSKPFMRLDKYPTLLKELERHMEDYHTDRQDIQKSMAAFKNLSAQCQEVRKRKELELQILTEAIRNWEGDDIKTLGNVTYMSQVLIQCAGSEEKNERYLLLFPNVLLMLSASPRMSGFIYQGKLPTTGMTITKLEDSENHRNAFEISGSMIERILVSCNNQQDLQEWVEHLQKQTKVTSVGNPTIKPHSVPSHTLPSHPVTPSSKHADSKPAPLTPAYHTLPHPSHHGTPHTTINWGPLEPPKTPKPWSLSCLRPAPPLRPSAALCYKEDLSKSPKTMKKLLPKRKPERKPSDEEFASRKSTAALEEDAQILKVIEAYCTSAKTRQTLNSTWQGTDLMHNHVLADDDQPSLDSLGRRSSLSRLEPSDLSEDSDYDSIWTAHSYRMGSTSRKSCCSYISHQN

Variants of: B1
Details: with rac1_human RAC1, P63000

Variant | effect of a mutation on the interaction
P340E | increasing interaction
